Five substances from article PMC11558545, “Mechanistic Insights into the Function of 14-3-3 Proteins as Negative Regulators of Brassinosteroid Signaling in Arabidopsis” (Plant and Cell Physiology, 2024) can be followed below.

Assay [1] has as its target 14-3-3κ (UniProt P48348). As to the kind of experiment: isothermal titration calorimetry.
In assay [2] the target is Arabidopsis 14-3-3 isoform kappa (At14-3-3-κ^1−248) (Arabidopsis thaliana) (UniProt P48348). As to the kind of experiment: ITC; Nano ITC, 25°C, 25 mM Hepes pH 7.0, 50 mM KCl; 600 μM peptide or phosphopeptide injected into 50 μM 14-3-3 protein in the cell, 25 injections.
Chain of Arabidopsis 14-3-3 isoform kappa (At14-3-3-κ^1−248) (Arabidopsis thaliana) (P48348 whole entry, canonical isoform): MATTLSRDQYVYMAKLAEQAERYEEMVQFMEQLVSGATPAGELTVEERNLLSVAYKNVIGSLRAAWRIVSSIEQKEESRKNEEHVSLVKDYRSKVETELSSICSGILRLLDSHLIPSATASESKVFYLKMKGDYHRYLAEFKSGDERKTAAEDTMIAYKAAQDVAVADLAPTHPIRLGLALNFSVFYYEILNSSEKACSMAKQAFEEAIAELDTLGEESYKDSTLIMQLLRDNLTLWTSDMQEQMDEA
Assay [3] addresses biotinylated 14-3-3 ω dimer (Arabidopsis thaliana) (UniProt Q01525). The assay is described as follows: grating-coupled interferometry (GCI); Creoptix WAVE; biotinylated 14-3-3 ω dimer captured on a streptavidin-coated 4PCH chip (~500 pg/mm^2); peptide as analyte, 2-fold dilution series from 10 µM; 25°C; 20 mM Hepes, 150 mM NaCl; 1-to-1 (2:2) binding model.

Chain of biotinylated 14-3-3 ω dimer (Arabidopsis thaliana) (Q01525 whole entry): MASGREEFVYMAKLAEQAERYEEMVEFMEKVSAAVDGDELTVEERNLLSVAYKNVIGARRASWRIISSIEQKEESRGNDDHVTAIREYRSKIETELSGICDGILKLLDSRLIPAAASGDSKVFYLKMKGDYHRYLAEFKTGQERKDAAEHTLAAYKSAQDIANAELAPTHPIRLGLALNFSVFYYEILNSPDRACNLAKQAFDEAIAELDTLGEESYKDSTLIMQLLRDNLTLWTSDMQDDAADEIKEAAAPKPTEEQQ
Chain of 14-3-3κ (P48348 whole entry, looked up, canonical isoform): as the sequence (P48348 whole entry, canonical isoform) above

Turning to “BKI1 265-272 (from UniProt Q9FMZ0) pS270 peptide”, the KD entry in assay [1] (reference: unphosphorylated BKI1 265-272 peptide, sites S270) is “gained; reference No binding was detected”.

For “BRI1 869-874 (from UniProt O22476) pT872 peptide”, the “binding against the reference” value in assay [1] (reference: unphosphorylated BRI1 869-874 peptide, sites T872) is reported as “gained”.

For pBKI1^265−272 peptide, in assay [2], the Kd worked out at 16000 nM and the stoichiometry N is 1.

In assay [2], pBRI1^869−874 peptide registered a stoichiometry N of 1.

Consider pBZR1^169−175 peptide, for which, in assay [2], the dissociation constant (Kd) came to 500 nM and the stoichiometry N amounted to 1. For the same substance, in assay [3], the Kd stood at 500 nM and the complex lifetime worked out at 1 s.
